Two molecules from patent EP4806913A1 (Vaxcell-Bio Co., Ltd., dated 2025) can be followed below.

This experiment has as its target T1, recombinant EphA2 protein (R&D systems) (human, UniProt P29317 25-534, limits assumed).
T1 construct: Bought protein coated on the ELISA plate at 1 ug/mL; also called hEphA2; human antigen EphA2
Briefly: ELISA: recombinant EphA2 coated at 1 ug/mL, monobody-amh diluted twofold from 500 nM, detected with HRP anti-c-Myc antibody, OD 450 nm. For orientation: An ELISA detects its analyte on a solid surface through an enzyme-linked reagent.

T1 sequence (P29317 25-534 limits assumed): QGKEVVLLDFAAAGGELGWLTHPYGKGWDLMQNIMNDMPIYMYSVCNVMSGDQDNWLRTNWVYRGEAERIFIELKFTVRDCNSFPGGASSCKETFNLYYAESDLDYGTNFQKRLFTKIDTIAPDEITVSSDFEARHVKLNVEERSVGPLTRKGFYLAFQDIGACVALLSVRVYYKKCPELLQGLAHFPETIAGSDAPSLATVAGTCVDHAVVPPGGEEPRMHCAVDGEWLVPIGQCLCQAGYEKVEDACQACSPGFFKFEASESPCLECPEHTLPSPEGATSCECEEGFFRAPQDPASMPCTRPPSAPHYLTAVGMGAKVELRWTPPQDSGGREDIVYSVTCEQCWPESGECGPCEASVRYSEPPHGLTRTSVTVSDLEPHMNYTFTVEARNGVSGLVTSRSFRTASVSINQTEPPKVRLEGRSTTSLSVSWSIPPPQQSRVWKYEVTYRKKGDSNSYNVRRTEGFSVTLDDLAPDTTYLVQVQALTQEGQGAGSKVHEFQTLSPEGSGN

B1: E1-amh (E1 monobody with C-terminal AviTag-Myc-6xHis tag) (designed binder)
chain: VSDVPRDLEVVAATPTSLLISWYYPFCAFYYRITYGETGGNSPVQEFTVPRPSDTATISGLKPGVDYTITVYAVTCLGSYSRPISINYRT
notes: Expressed in E. coli BL21(DE3) from pETamh and purified by IMAC and size exclusion; also called non-hydrophilic monobody(E1); E1 monomer; not shown: amh tag (AviTag-Myc-6xHis) of the pETamh vector linked to the C-terminus
For B1, the binding result is recorded as “binds”.

B2: hpE1-amh (hydrophilic E1 monobody with C-terminal AviTag-Myc-6xHis tag) (designed binder)
chain: SSDSPRNLEVTNATPNSLTISWYYPFCAFYYRITYGETGGNSPSQEFTVPRPSDTATISGLKPGQDYTITVYAVTCLGSYSRPISINYRTEIDKPSQ
notes: Expressed in E. coli BL21(DE3) from pETamh and purified by IMAC and size exclusion; The gene was cloned at an NdeI site that includes the ATG start codon; also called hpE1 monobody; hydrophilic monobody(hpE1); not shown: amh tag (AviTag-Myc-6xHis) of the pETamh vector linked to the C-terminus
With B2, the binding result is reported as “binds”.
